Data: publication PMC2132664 (The Journal of Cell Biology, 1998)

B1: STABLE COIL K560–GFP (aa 343–370 replaced by four repeats of EIEALKA) (domain or fragment, human)
chain: MADLAECNIKVMCRFRPLNESEVNRGDKYIAKFQGEDTVVIASKPYAFDRVFQSSTSQEQVYNDCAKKIVKDVLEGYNGTIFAYGQTSSGKTHTMEGKLHDPEGMGIIPRIVQDIFNYIYSMDENLEFHIKVSYFEIYLDKIRDLLDVSKTNLSVHEDKNRVPYVKGCTERFVCSPDEVMDTIDEGKSNRHVAVTNMNEHSSRSHSIFLINVKQENTQTEQKLSGKLYLVDLAGSEKVSKTGAEGAVLDEAKNINKSLSALGNVISALAEGSTYVPYRDSKMTRILQDSLGGNCRTTIVICCSPSSYNESETKSTLLFGQRAKTIKNTVCVNVELTAEQWKKEIEALKAEIEALKAEIEALKAEIEALKAGETVPIDEQFDKEKANLEAFTVDKDITLTNDKPATAIGVIGNFTDAERRKCEEEIAKLYKQLDDKDEEINQQSQLVEKLKTQMLDQEELLASTRRDQDNMQAELNRLQAENDASKEEVKEVLQALEELAVNYDQKSQEVEDKTKEYELLSDELNQKSATLASIDAELQKLKEMTNHQKKRAAEMMASLLK
B2: DEL K560–GFP (aa 341–370 of the neck coiled coil deleted) (domain or fragment, human, UniProt P33176 1-560, looked up)
chain: MADLAECNIKVMCRFRPLNESEVNRGDKYIAKFQGEDTVVIASKPYAFDRVFQSSTSQEQVYNDCAKKIVKDVLEGYNGTIFAYGQTSSGKTHTMEGKLHDPEGMGIIPRIVQDIFNYIYSMDENLEFHIKVSYFEIYLDKIRDLLDVSKTNLSVHEDKNRVPYVKGCTERFVCSPDEVMDTIDEGKSNRHVAVTNMNEHSSRSHSIFLINVKQENTQTEQKLSGKLYLVDLAGSEKVSKTGAEGAVLDEAKNINKSLSALGNVISALAEGSTYVPYRDSKMTRILQDSLGGNCRTTIVICCSPSSYNESETKSTLLFGQRAKTIKNTVCVNVELTAEQWGETVPIDEQFDKEKANLEAFTVDKDITLTNDKPATAIGVIGNFTDAERRKCEEEIAKLYKQLDDKDEEINQQSQLVEKLKTQMLDQEELLASTRRDQDNMQAELNRLQAENDASKEEVKEVLQALEELAVNYDQKSQEVEDKTKEYELLSDELNQKSATLASIDAELQKLKEMTNHQKKRAAEMMASLLK

Target: the molecule itself
Test: single-spot fluorescence intensity

| Protein | stoichiometry N |
| --- | --- |
| B1 | 2 |
| B2 | 2 |
